B1: PD1/LAG3 0750 (bispecific antibody, human IgG1, kappa, L234A L235A)
heavy 1: not shown
heavy 2: EVQLLESGGGLVQPGGSLRLSCAASGFIFDDYTMNWVRQAPGKGLEWVAVISWDGGGTYYTDSVKGRFTISRDDFKNTLYLQMNSLRAEDTAVYYCAKGLTDTTLYGSDYWGQGTLVTVSSASTKGPSVFPLAPSSKSTSGGTAALGCLVEDYFPEPVTVSWNSGALTSGVHTFPAVLQSSGLYSLSSVVTVPSSSLGTQTYICNVNHKPSNTKVDEKVEPKSCDKTHTCPPCPAPEAAGGPSVFLFPPKPKDTLMISRTPEVTCVVVDVSHEDPEVKFNWYVDGVEVHNAKTKPREEQYNSTYRVVSVLTVLHQDWLNGKEYKCKVSNKALGAPIEKTISKAKGQPREPQVCTLPPSRDELTKNQVSLSCAVKGFYPSDIAVEWESNGQPENNYKTTPPVLDSDGSFFLVSKLTVDKSRWQQGNVFSCSVMHEALHNHYTQKSLSLSPGKGGGGSGGGGSEVQLLESGGGLVQPGGSLRLSCAASGFIFDDYTMNWVRQAPGKGLEWVAVISWDGGGTYYTDSVKGRFTISRDDFKNTLYLQMNSLRAEDTAVYYCAKGLTDTTLYGSDYWGQGTLVTVSSASTKGPSVFPLAPSSKSTSGGTAALGCLVEDYFPEPVTVSWNSGALTSGVHTFPAVLQSSGLYSLSSVVTVPSSSLGTQTYICNVNHKPSNTKVDEKVEPKSC
light 1: EVQLLESGGGLVQPGGSLRLSCAASGFSFSSYTMSWVRQAPGKGLEWVATISGGGRDIYYPDSVKGRFTISRDNSKNTLYLQMNSLRAEDTAVYYCVLLTGRVYFALDSWGQGTLVTVSSASVAAPSVFIFPPSDEQLKSGTASVVCLLNNFYPREAKVQWKVDNALQSGNSQESVTEQDSKDSTYSLSSTLTLSKADYEKHKVYACEVTHQGLSSPVTKSFNRGEC
light 2: not shown
notes: 2+1 trans format: one LAG3 Fab N-terminal, one fused to the C-terminus of the Fc hole chain; also called 1 + 2 trans
B2: Reference LAG3 antibody BMS-986016 (antibody, V domains shown)
VH: QVQLQQWGAGLLKPSETLSLTCAVYGGSFSDYYWNWIRQPPGKGLEWIGEINHRGSTNSNPSLKSRVTLSLDTSKNQFSLKLRSVTAADTAVYYCAFGYSDYEYNWFDPWGQGTLVTVSS
VL: EIVLTQSPATLSLSPGERATLSCRASQSISSYLAWYQQKPGQAPRLLIYDASNRATGIPARFSGSGSGTDFTLTISSLEPEDFAVYYCQQRSNWPLTFGQGTNLEIK
notes: also called aLAG3(BMS986016)

Key:
[1] = molecular target: full-length human PD1 on cells (human, UniProt Q15116 25-288); test: cell-based or functional assay
[2] = molecular target: T1, LAG3 on cells (recombinant CHO cells expressing Lag3) (human, UniProt P18627 29-525); test: cell-based or functional assay
T1 sequence: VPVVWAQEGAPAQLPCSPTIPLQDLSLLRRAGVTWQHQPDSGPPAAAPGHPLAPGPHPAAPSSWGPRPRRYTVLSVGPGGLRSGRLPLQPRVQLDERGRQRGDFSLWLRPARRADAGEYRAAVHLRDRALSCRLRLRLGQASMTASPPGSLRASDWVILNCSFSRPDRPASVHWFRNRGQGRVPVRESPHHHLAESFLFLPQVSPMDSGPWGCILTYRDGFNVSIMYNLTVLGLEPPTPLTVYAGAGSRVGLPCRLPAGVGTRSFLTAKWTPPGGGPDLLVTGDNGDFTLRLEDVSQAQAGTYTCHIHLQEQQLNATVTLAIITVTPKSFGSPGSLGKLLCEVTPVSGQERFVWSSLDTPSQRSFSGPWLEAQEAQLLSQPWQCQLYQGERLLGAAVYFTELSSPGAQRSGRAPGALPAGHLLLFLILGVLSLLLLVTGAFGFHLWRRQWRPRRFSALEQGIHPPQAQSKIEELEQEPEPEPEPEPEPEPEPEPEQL

[3] = molecular target: PD1 on PD1+LAG3+ human U2OS cells (UniProt Q15116 25-288); test: cellular PD1/LAG3 dimerization assay, 7500 PD1+LAG3+ U2OS cells a well, 20 h at 37 °C, chemoluminescence; the signal needs PD1 and LAG3 bound at once
Description: Next, assay plates were equilibrated to room temperature and a substrate/buffer mix (PathHunterFlash detection reagent, Discoverx) was added and again incubated for 4h. For measuring chemoluminescence induced upon simultaneous binding and dimerization a SpectraMax L plate reader (Molecular Devices) was used.

[4] = molecular target: T2, cynomolgus LAG3 on cells (cynomolgus); test: flow cytometry on activated cynomolgus PBMC, 10 µg/ml (only 2nd Ab (hu): 7.62)
T2 construct: whole, on cells; also called cyno-LAG-3; cynoLAG3
Description: Thus, cynomolgus peripheral blood mononuclear cells (PBMC) were prepared from fresh cynomolgus blood and were then activated by CD3/CD28 pre-treatment (1 μg/ml) for 2-3 days. […] After staining, cells were washed two times with PBS/2% FCS and analyzed on a FACS Fortessa (BD).

PD1 on PD1+LAG3+ human U2OS cells, sequence (Q15116 25-288): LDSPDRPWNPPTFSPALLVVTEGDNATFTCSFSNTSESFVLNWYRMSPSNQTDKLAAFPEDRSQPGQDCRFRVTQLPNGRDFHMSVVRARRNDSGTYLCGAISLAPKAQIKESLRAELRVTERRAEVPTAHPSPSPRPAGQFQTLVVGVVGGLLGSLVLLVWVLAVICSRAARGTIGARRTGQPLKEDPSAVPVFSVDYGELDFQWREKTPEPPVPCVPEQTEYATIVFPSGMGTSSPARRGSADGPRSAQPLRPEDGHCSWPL
full-length human PD1 on cells, sequence (Q15116 25-288 limits assumed): as the sequence (Q15116 25-288) above

| Binder | EC50 [nM], PD-1 & LAG-3 combo reporter assay (NFAT luciferase) [1] [nM] | EC50 [nM], PD-1 & LAG-3 combo reporter assay (NFAT luciferase) [2] [nM] | EC50 (read off the curve) [3] [pM] | % positive cyno cells (PBLs) after CD3/CD28 activation [4] [%] |
| --- | --- | --- | --- | --- |
| B1 | 0.6 | 0.6 | ~60 |  |
| B2 |  |  |  | 18.6 |
